The source of these data is patent publication US20090318341A1.

Like-named read-outs stand apart in the source and are kept apart here. Ends that are not written are not given here.

Holding throughout (assay): cell-based or functional assay
For assay [1], the target named is human Kv1.3 voltage-gated potassium channel (human) (UniProt P22001).
Assay [2] deals with human Kv1.3 channel (human) (UniProt P22001).
In assay [3] the target is human Kv1.1 channel (human) (UniProt Q09470).
Assay [4] concerns the target human Kv1.3 channel (human) (UniProt P22001). This is another data set of the same source.

Sequence of human Kv1.3 channel (human) (P22001 whole entry): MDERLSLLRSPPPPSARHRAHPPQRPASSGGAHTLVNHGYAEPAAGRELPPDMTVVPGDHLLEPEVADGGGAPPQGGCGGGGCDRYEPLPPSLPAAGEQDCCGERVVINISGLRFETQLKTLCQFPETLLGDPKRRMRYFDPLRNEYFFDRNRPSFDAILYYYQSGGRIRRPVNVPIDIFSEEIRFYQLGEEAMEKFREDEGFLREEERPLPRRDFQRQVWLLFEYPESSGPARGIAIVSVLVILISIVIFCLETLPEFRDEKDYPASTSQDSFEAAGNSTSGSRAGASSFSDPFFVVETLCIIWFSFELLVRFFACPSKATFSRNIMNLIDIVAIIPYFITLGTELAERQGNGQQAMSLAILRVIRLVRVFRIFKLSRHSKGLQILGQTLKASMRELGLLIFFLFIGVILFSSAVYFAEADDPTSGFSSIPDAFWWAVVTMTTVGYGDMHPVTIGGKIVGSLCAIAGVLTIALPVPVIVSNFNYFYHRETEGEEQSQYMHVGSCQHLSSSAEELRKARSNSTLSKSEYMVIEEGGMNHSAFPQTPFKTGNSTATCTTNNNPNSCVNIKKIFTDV
Sequence of human Kv1.3 voltage-gated potassium channel (human) (P22001 whole entry): as above
Sequence of human Kv1.1 channel (human) (Q09470 whole entry): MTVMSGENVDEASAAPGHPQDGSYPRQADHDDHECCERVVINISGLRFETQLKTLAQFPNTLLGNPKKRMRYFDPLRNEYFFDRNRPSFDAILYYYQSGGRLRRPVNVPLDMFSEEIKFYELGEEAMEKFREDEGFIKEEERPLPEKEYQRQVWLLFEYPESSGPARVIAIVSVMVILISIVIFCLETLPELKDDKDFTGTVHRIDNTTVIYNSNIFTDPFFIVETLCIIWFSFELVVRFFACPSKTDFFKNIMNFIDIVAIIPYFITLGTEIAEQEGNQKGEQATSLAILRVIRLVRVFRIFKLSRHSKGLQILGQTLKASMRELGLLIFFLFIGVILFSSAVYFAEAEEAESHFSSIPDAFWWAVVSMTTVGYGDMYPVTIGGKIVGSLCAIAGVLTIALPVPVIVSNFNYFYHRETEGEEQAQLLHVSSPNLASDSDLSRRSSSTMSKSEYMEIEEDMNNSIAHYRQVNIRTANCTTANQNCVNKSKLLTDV

In assay [1], 20k PEG-OSK1[Ala29, 1Nal34] (peptide) registered a WB/IFNg (IC50, nM), human whole blood assay of 0.081 nM and a WB/IL-2 (IC50, nM), human whole blood assay of 0.049 nM.

For 20k PEG-ShK (peptide), in assay [1], the WB/IFNg (IC50, nM), human whole blood assay amounted to 0.065 nM and the WB/IL-2 (IC50, nM), human whole blood assay stood at 0.046 nM. With Fc-L5-ShK[2-35] (Fc fusion), the IC50 of block of the outward potassium current, whole cell patch clamp in assay [2] was 0.1 nM. As to “Fc-L10-ShK[2-35] (CHO-derived) (Fc fusion)”, the IC50 of block of the outward potassium current, whole cell patch clamp in assay [2] is 0.115 nM.

In assay [1], GGGGS-Osk1 (peptide) had a WB/IFNg (IC50, nM), human whole blood assay of 2.2 nM and a WB/IL-2 (IC50, nM), human whole blood assay of 1.36 nM.

Consider “OSK1 (native Orthochirus scrobiculosus toxin peptide)”, for which, in assay [1], the Kv1.3 Selectivity (=Kv1.1/Kv.3 IC50) is 5 fold. In assay [1], OSK1 analogue E16K, K20D (peptide) had a WB/IFNg (IC50, nM), human whole blood assay of 1.32 nM and a WB/IL-2 (IC50, nM), human whole blood assay of 1.58 nM. The molecule Synthetic OSK1 (peptide) displayed a hKv1.1: IC50 [pM], block of K+ current, whole cell patch clamp in assay [3] of 160 pM. Further, in assay [2], the hKv1.3: IC50 [pM], block of K+ current, whole cell patch clamp stood at 39 pM and the selectivity ratio hKv1.1/hKv1.3 (IC50 on hKv1.1 over IC50 on hKv1.3) was found to be 4 fold. Turning to synthetic OSK1 toxin peptide, in assay [2], the IC50 of block of the outward potassium current, whole cell patch clamp came out at 0.039 nM.

In the case of SCIDTIPKSRCTAFQCKHSMKYRLSFCRKTCGTC (not fully specified; ends and bridges not checked) [ShK[2-35] synthetic peptide analog], in assay [4], the IC50 of block of the outward potassium current, whole cell patch clamp stood at 0.049 nM.
